Here are results for eleven variants from the supplement of paper PMC7125110.

Sequences and labels used below:
B1: glmS ribozyme (parent)
chain: AUAAAAGCGCCAGAACUACAGAAAUGUAGUUGACGAGGAGGAGGUUUAUCGAAUUUUCGGCGGAUGCCUCCAAA

± gives the standard error. This sample holds only a part of the variants without activity.

Conditions in all cases: with glucosamine-6-phosphate
In data set [1] the parent is B1. As to the kind of experiment: self-cleavage kobs at 40 uM GlcN6P; higher = faster cleavage; RNA array. The method in brief:
(§1)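 kobs was derived by fitting per-tile medians to one- or two-exponential decays after normalising signals to baseline and to non-cleaving reference variants. Those signals came from barcoded ribozyme variants transcribed in situ by E. coli RNA polymerase on sequenced MiSeq chips, followed through a hybridised Cy3 probe at 37 °C and imaged over ~14 h. Glucosamine-6-phosphate (40 μM to 10 mM) in HEPES/KCl/Mg(OAc)2 buffer was flowed in. Weighted Michaelis–Menten fits across concentrations then gave kcat and KM.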

The variants in data set [2] derive from B1. Put plainly: self-cleavage kobs at 160 uM GlcN6P; higher = faster cleavage; RNA array. The procedure, abridged:
as §1

Data set [3] covers variants of B1. As to the kind of experiment: self-cleavage kobs at 640 uM GlcN6P; higher = faster cleavage; RNA array. The procedure, abridged:
as §1

The variants in data set [4] derive from B1. As to the kind of experiment: self-cleavage kobs at 2500 uM GlcN6P; higher = faster cleavage; RNA array. The procedure, abridged:
as §1

In data set [5] the parent is B1. Put plainly: self-cleavage kobs at 10000 uM GlcN6P; higher = faster cleavage; RNA array. The method in brief: as §1

Take AUAAAAGGGCAAGAACUACAGAAAUGUAGUUGACGAGGAGGAGGUUUAUGGAAUUUUCGGCGGAUGCCUCCAAA [C8G C11A C50G]: the “self-cleavage kobs at 40 uM GlcN6P” value with glucosamine-6-phosphate [1] turned out to be 0.000193 ± 4.9e-05 s⁻¹.
With AUAAAAGCGCCAGAACUACAGAAAUGUAGUUGAAGAGGAGGAGGUUUAUCGAAUUUUCGGCCGAUGCCUCCAAA [C34A G62C], the “self-cleavage kobs at 40 uM GlcN6P” value with glucosamine-6-phosphate [1] was below 1e-05 s⁻¹. Also, in the data set with glucosamine-6-phosphate [2], the “self-cleavage kobs at 160 uM GlcN6P” value is below 1e-05 s⁻¹. Moreover, in the data set with glucosamine-6-phosphate [3], the “self-cleavage kobs at 640 uM GlcN6P” value was below 1e-05 s⁻¹. In addition, the “self-cleavage kobs at 2500 uM GlcN6P” value with glucosamine-6-phosphate [4] was below 1e-05 s⁻¹. Besides, in the data set with glucosamine-6-phosphate [5], the “self-cleavage kobs at 10000 uM GlcN6P” value was below 1e-05 s⁻¹.
On to AUAAAAGCGCCAUAACUACAGAAAUGUAGUCGCCGAGGAGGAGGUUUCUCGCAUUGUCGGCGGAUGCCUCCAAA [G13U U31C A33C A48C A52C U56G], for which the “self-cleavage kobs at 40 uM GlcN6P” value in the data set with glucosamine-6-phosphate [1] is below 1e-05 s⁻¹.
On to AUAAAUGCGCCAGAACUACAGAAAUGUAGUUGACGAGGAGGAGGUUUAUGGAAUUUUCGGCGGAUGCCUCCAAA [A6U C50G], for which the “self-cleavage kobs at 40 uM GlcN6P” value with glucosamine-6-phosphate [1] stood at 4.82e-05 ± 1.8e-05 s⁻¹. In the data set with glucosamine-6-phosphate [2], the “self-cleavage kobs at 160 uM GlcN6P” value is 6.77e-05 ± 2.7e-05 s⁻¹. Besides, in the data set with glucosamine-6-phosphate [4], the “self-cleavage kobs at 2500 uM GlcN6P” value came out at 0.000434 ± 0.00021 s⁻¹. In the data set with glucosamine-6-phosphate [5], the “self-cleavage kobs at 10000 uM GlcN6P” value was found to be 2.57e-05 ± 1.3e-05 s⁻¹.
In the same order, the values of AUAAAAGCGCCAGAGCUACAGAAAUGUAGUUGACUAGGAGGAGGUUUAUCGAAUUUUCGGCGGAUGCCUCCAAA [A15G G35U] are below 1e-05 s⁻¹, below 1e-05 s⁻¹, below 1e-05 s⁻¹ and below 1e-05 s⁻¹.
Regarding AUAAAAGCGCCAGAACUACAGAAAUGUAGUUGACCAGGAGGAGGUUUAUCGAAUUUUCGGCGAAUGCCUCCAAA [G35C G63A], in the data set with glucosamine-6-phosphate [1], the “self-cleavage kobs at 40 uM GlcN6P” value is below 1e-05 s⁻¹. Besides, the “self-cleavage kobs at 160 uM GlcN6P” value with glucosamine-6-phosphate [2] was below 1e-05 s⁻¹. Besides, in the data set with glucosamine-6-phosphate [3], the “self-cleavage kobs at 640 uM GlcN6P” value was below 1e-05 s⁻¹. Moreover, the “self-cleavage kobs at 10000 uM GlcN6P” value with glucosamine-6-phosphate [5] is below 1e-05 s⁻¹.
As for AUAAAAGCGCCAGAACUACAGAAAUGUAGUUGACGAGGAGGAGGUUAAUCGAACUUUCGGCGGAUGCCUCCAAA [U47A U54C], the “self-cleavage kobs at 40 uM GlcN6P” value with glucosamine-6-phosphate [1] worked out at 0.000843 ± 0.0002 s⁻¹. In addition, the “self-cleavage kobs at 160 uM GlcN6P” value with glucosamine-6-phosphate [2] was 0.00125 ± 0.00029 s⁻¹. In the data set with glucosamine-6-phosphate [3], the “self-cleavage kobs at 640 uM GlcN6P” value stood at 0.00582 ± 0.0015 s⁻¹. In addition, in the data set with glucosamine-6-phosphate [4], the “self-cleavage kobs at 2500 uM GlcN6P” value amounted to 0.014 ± 0.0038 s⁻¹.
Turning to AUAAAAGCGUCAGAACUACAGAAAUGUAGUUGACGAGGAUGAGGUUUACCGAAUUUUCGGCGGAUGCCUACAAA [C10U G40U U49C C70A], the “self-cleavage kobs at 40 uM GlcN6P” value with glucosamine-6-phosphate [1] is below 1e-05 s⁻¹. Further, the “self-cleavage kobs at 10000 uM GlcN6P” value in the data set with glucosamine-6-phosphate [5] was below 1e-05 s⁻¹.
For AUAAAAGCGCCAGGAUUACAGAAAUGUAGUUGACGAGGAGGAGGGUUAUCGAAUUUUCGGCGGAUGUCUCCAAA [A14G C16U U45G C67U], the “self-cleavage kobs at 40 uM GlcN6P” value with glucosamine-6-phosphate [1] was 0.00026 ± 6.6e-05 s⁻¹. In addition, the “self-cleavage kobs at 160 uM GlcN6P” value with glucosamine-6-phosphate [2] came out at 0.000132 ± 3e-05 s⁻¹. Further, the “self-cleavage kobs at 640 uM GlcN6P” value with glucosamine-6-phosphate [3] stood at 0.00248 ± 0.0012 s⁻¹. In the data set with glucosamine-6-phosphate [4], the “self-cleavage kobs at 2500 uM GlcN6P” value is 0.00988 ± 0.0035 s⁻¹.
For the variant AUAAAAGCCCCAGAACUACAGAAAUGUACUUGACGAGGAGGAGGUUUAUCGAAUUUUCGGCGGAUGUCUCCAAA [G9C G29C C67U], in the data set with glucosamine-6-phosphate [1], the “self-cleavage kobs at 40 uM GlcN6P” value is below 1e-05 s⁻¹. The “self-cleavage kobs at 640 uM GlcN6P” value in the data set with glucosamine-6-phosphate [3] is below 1e-05 s⁻¹. Also, the “self-cleavage kobs at 10000 uM GlcN6P” value with glucosamine-6-phosphate [5] is below 1e-05 s⁻¹.
Turning to AUAAAAGCGCCAGAACUACAGAAAUGUAGUUGACGAGGAGGAGGUUUAUCGAUUCUUCGGCGGAUGCCUCCAAA [A53U U55C], the “self-cleavage kobs at 40 uM GlcN6P” value with glucosamine-6-phosphate [1] is 0.000338 ± 7.3e-05 s⁻¹. The “self-cleavage kobs at 160 uM GlcN6P” value with glucosamine-6-phosphate [2] stood at 0.00118 ± 0.0004 s⁻¹. Besides, the “self-cleavage kobs at 640 uM GlcN6P” value with glucosamine-6-phosphate [3] is 0.00434 ± 0.00089 s⁻¹. Besides, in the data set with glucosamine-6-phosphate [4], the “self-cleavage kobs at 2500 uM GlcN6P” value was 0.00602 ± 0.0019 s⁻¹. The “self-cleavage kobs at 10000 uM GlcN6P” value with glucosamine-6-phosphate [5] worked out at 0.0266 ± 0.0065 s⁻¹.
